Data from the nanobody polyreactivity screen of Harvey et al. (2022).

Assay: yeast display, Sf9 membrane polyspecificity reagent, FACS + sequencing; frameworks hold sequencing errors
In short: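 Galactose-induced (36–48 hours) yeast carrying a synthetic nanobody display library were exposed to 10% biotinylated, detergent-solubilized Sf9 membrane reagent at 4 °C for 1 hour. FACS followed streptavidin microbead enrichment, using low and high (top ~1%) gates for expression (anti-HA) and reagent binding (streptavidin). Colony PCR, MiSeq 2 × 250 sequencing and CDR-length filtering followed. Labels for polyreactivity reflect the gate of origin.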

Sequence	polyreactivity (PSR sort gate)
QVQLVESGGGLVQAGGSLRLSCPASGSTFAIYGMGWYRQAPGKERELVAGITRGGSTNYADSVKGRFTISRDNAKNTVYLQMNILKPEDTAVYYCNSPLGVRRFKSKGRSHYEYWGQGTQVSVSS	high polyreactivity
QVQLVESGGGLVQAGGSLRLSCAASGRTFHFDAMGWYRQAPGKERELVASITWSAVRTYYADSVKGRFTISRDNAKYTVYLQMNSLKQEDTAVYYCAIDWDYRLMDYWGQGTQVTVSS	low polyreactivity
QVHLVESGGGLVQAGGSLRLSCAASGRIFYYNAMGWYRQAPGKERELVAAISSAGSTYYADSVKGRFTLSRDNAKNTVYLQMNSLKPEDTAVYYCNAGKHERMDWGQGTQVTVSS	high polyreactivity
QVQLVESGGGLVQAGGSLRLSCAASGSTFYPNAMGWYRQAPGKERELVAAITSGGSTYYADSVKGRFTSSRDNAKNTVYLQMTSLKPEDTAVYYCAAQRRYHQDTTIGPGNYSYWGQGTQVTVSS	low polyreactivity
QVQLVESGGGLVQAGGSLRLSCAASGRIFTGNVMGWYRQAPGKERELVAAITYRRGSTYYADSVKGRFTISRDNAKNTVYLQMNSLKPEDSAVYYCNTGWDPYGYDYWGQGTQVTVSS	low polyreactivity
QVHLVESGGGLVQAGGSLRLSCAASGDTFVKYAMGWYRQAPGKERELVAAISSGGRTYYADSVKGRFTISRDNAKNTVYLQMNSLKPEDTAVYFCNAVRPYRLASYDYWGQGTQVTVSS	high polyreactivity
QVQLVESGGGLVQAGCSLRLSCAASGRTFYTVYARGWYRQAPGKERELVAAITKDGTTTYYADSVKGRFTISRDNAKNTVYIEMNSLKQEDTAVYYCNADVSQPWGGGEYNYWGQGTQVTVSS	high polyreactivity
QVQLVESWGGLFQAGGSLRLSCAASGSTFIYNAMGWYRKAPGKERELVAAITWNYGSTYYADSVKGRFTISRDNANNTVYLQMNSLKPEDTAVYYCAADFTIPYWDANFDYWGQGTQVTVSW	low polyreactivity
QVQLVESGGGLVQAGGSLRLSCAASGLTFKLYVMGWYRQAPRKERELVAAISGGGSTYYADSVKGRFTISRDNAKNTVYLQMYSLKPEDTAVYYCAAVRYFEYEYWGQGTQVTVSS	low polyreactivity
QVQLVESGGGLVQAGGSLRLSCAASGYIFYYYTMGWYRQATGKEREFVAAISYSVGSTYADSVKGRFTISRDNAKNTVYLQMNSLKPEDTAVYYCNAVTIRNVYYSGGYWGQGTQVTVSS	high polyreactivity
QVQLVESCGGLVPAGGSLRLSCAASGSTFRYAMGWYRQTPGKERELVDAITRSGGSTYYAYSVKVRFTISRDKAKNTVYLQMNSLKPEDTAVYYCNARRGKGKSYGDYGYGYWGQGTQVTVSS	high polyreactivity
QVQLVESGGGLVQAGGSLRLSCAASGLTIYPNAMGWYRQAPGKERELVAAITYSGDTYYADSVKGRFTISRDNAKNTVYLQMNSLKPEDTAVYYCATDVDWAYGYQYEYWGQGTQVTVSS	low polyreactivity
QVQLVESGGGLDQAGGSLRLSCAASGFTFPLYAMGWYRQAPGKERELVAVISRSGGSTYYADSVKGRFTISRDNAKNTVYLQMNSLTPEDTAVYYCAARLVPRSPERGNYDYWGQGTQVTVSS	high polyreactivity
QVQLVESGGGLVQAGGSLRLSCAASGFTFWWYTMGWYRPAPGKERELVAAITSGGSTYYADSVKGRFTISRDNAKNTVYLQMNSLKPEDTAVYYCNVVPYLYGLDGYDYWGQGTQVTVSS	high polyreactivity
QVQLEESGGGLVKARGSLRLSCAASGRTFNFYYMGWYRQAPGKERELVAAISSSGGSTYYADSVKGRFTISRDTAKYTVYLQMISLIPEDTAVYYCAKGPLYSLCFQHDAPYRYGYWGQATQVTVSS	low polyreactivity
QVQLVESGGGLVQAGGSLRLSCAASGITFVTYAMGWYRQAPGKEREFVASINWITGNTYYADSVKGRFTISRDNAKNTVYLQMNSLKPEDTAVYYCATVDWSLYLGTPPSYYWGQGTQVTVSS	low polyreactivity

Sequence	polyreactivity (PSR sort gate)
QVQLVESGGGLVQAGGSLRLTCAASGLIFARNAMGWYRQAPGKDRELVAAISSSGNTYADSVKGRFTISRDNAKNTVYLHMNSLKPEDTAVYYCNAVRRIRVTSTYDYWGQGTQVTVSS	high polyreactivity
QVQLVESGGGLVQAGGSLRLSCAASGYTFWWYAMGWYRQAPGKEREFVAAIRFSGGTRTYYADSVKGRFTISRENAKYTVFLQMNSLKPDDTAVYYCAADIAFRQWQVGDFDYWGQGTQVTVSS	low polyreactivity
QVQLVESGGGLVQAGGSLRLSCAASGRTFAGYAMGWYRQAPGKERELVAAISGSGGRTYYADSVKGRFTISRDYAKNTVYLQMNSLKPEDTAVYYCAASQRVYIARSDYWGQGSQVTVSS	high polyreactivity
QVQLVESGGGLVQAGGSLRLSCAAYGSIFRVYAMGWYREAAGKERELVATISWSAGSTYYADSVKGRFTISRDNAKNTVYLQMNSLKPEDTAVYYCAADPVGYYDPSDYWGQGTQVTVSS	low polyreactivity
QVQLVESGGGLVQAGGSLRLSCAASGLTFPPYAMGWSRQAPGNERELVAAISRIRGRTYYADSVKGRFTISRDTAKNTVYLQMNSLKPEDTAVYYCAADGIKGGDEYDYWGQGTQVTVSS	high polyreactivity
QVQLVESGGGLVQAGGSLRLSCAASGRIFRGYAMGWYRQAPGKERELVAGISSGDNTYYADSVKGRFTISRDNAKNTVYLQMNSLKPEDTAVYYCNADHVYAVDYDYWGQGTQVTVSS	low polyreactivity
QVQLVESGGGLVQAGGSLRLSCAASGFIFVRYAMGWYRQAPGKERELVASITRSGGSTYYADSVKGRFTISRDNAKNTVYLQMNSLKPEDTAVYYCAASYYRSRGSTYGYWGQGTQVTVSS	high polyreactivity
QVLLEDSGGGLVQAGARLRLICAASGRIHVNAMGWYRQAPGKERELVASINIGDGTHYADSVKGRFTISRANAKNTVYLQLNSLISEVTAVYYCAADSRSSNACYDYWGQGTQVSVSS	low polyreactivity
QVQLVESGGGLVQAGGSLRLSCAASGSIFLSYAMGWYRQAPGKERELVAAISGRGGSTYYADSVKGRFTISRDNAKNTGYLQMNSLKPEDTAVNYCASEQWGWYWYDYWGQGTQVTVSS	high polyreactivity
QVQLVESGGGLVQAGGSLRLSCAASGRTFKKYAMGWYRQAPGKERELVAAITSSGGSTYYADSVKGRFTISRDNAKNTVYLQMNSLKPEDTAVYYCNTVYRHRQRAKYNYWGQGTQVTVSS	high polyreactivity
QVQLVESGGGLVQAGGSLRLSCAASGFTPGNVMGWYRQAPGKERELVAAISWSGDSTYYADSVKGRFTISRDNAKNTVYLQMNSLKPEDTAVYYCAADGVPGRAVDYEYWGQGTQVTVSS	high polyreactivity
QVQLVESGGGLVQAGGSLRLSCAASGFIFAFNAMGWYRQAPGKERELVAAISRSGGSTYADSVKGRFTISRDNEKNTVYLQMNSLKPEDTAVYFCAAYSGVGYLWFDYWGHGTQVTVSS	low polyreactivity
QVQLVESGGGLVQAGGSLRLSCAASGLIFPRYTMGWYRQAPGKERELVAAIRGTGGSTYYADSVKGRFTISRDNAKNTVYLQMNSLKPEDTAVYYCATRGKSHGQQFNYWGQGTQVTVSS	high polyreactivity
QVQLVESGGGLVQAGGSLRLSCAASGFTIRAYVMGSYRQAPGKEREFVADISYRGGGTNYADSVKGRFTISRDNAKNTVYLQMNSLKPEDTAVYYCNARSGSSKSGYYYWGQGTQVTVSS	high polyreactivity
QVQLVESGGGLVQAGGSLRLSCAASGSTFVRNVMGWYRQAPGKEREFVAAITRSGGSTYYADSVKGRFTISRDNAKNTVYLQMNSLKPEDTAVYYCIVPPGYRLSQYEYDYWGQGTQVTVSS	low polyreactivity
QVELQVSGGGLVRAGGSLRLSCAASGNIFDADIMGWYRQAPGKERELVASITGGGSTSYAESAKGRFTISRDNAKNAVYLQMNSLKPEDTAVYYCARDSWWYHHYDYWGQGTQVTVSS	low polyreactivity
